Assay results taken from patent publication US20240287202A1 (XYPHOS BIOSCIENCES, published 2024).

How the values were obtained:
[1] = target: T1, mouse NKG2D (mouse, UniProt O54709 94-232, limits assumed); test: ELISA on mouse NKG2D, absorbance against nM MicAbody
T1 construct: also called mouse wild-type NKG2D
T1 sequence (looked up): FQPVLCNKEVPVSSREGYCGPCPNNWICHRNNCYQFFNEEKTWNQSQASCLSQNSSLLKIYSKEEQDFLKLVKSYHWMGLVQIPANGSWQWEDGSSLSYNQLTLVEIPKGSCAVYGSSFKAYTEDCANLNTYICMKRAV

[2] = target: T2, His-tagged monomeric ULBP2 R81W (human, UniProt Q9BZM5 29-212); test: Octet BLI; Fc-wtNKG2D captured on AHC tips, dilution series of His-tagged monomeric ligand
T2 construct: range 29-212; Construct limits are stated only for wild-type ULBP2-His; position 81 counts on the mature protein, not on the UniProt entry
T2 sequence: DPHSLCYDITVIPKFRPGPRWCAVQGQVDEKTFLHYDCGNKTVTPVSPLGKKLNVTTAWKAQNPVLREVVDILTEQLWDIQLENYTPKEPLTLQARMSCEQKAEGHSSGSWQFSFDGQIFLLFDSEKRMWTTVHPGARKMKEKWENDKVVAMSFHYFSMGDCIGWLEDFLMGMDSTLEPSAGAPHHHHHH
Source text: (§1) YA. […] YA were captured with anti-human IgG Fc capture (AHC) biosensor tips then associated with a dilution series of ligand. Data are from single experiments.

[3] = target: T3, A1-A2 domain of human ULBP2 with C-terminal 6x-His tag (monomer) (human, UniProt Q9BZM5 29-212); test: as above
T3 construct: range 29-212; also called wild-type ULBP2; MIC-His ligand
T3 sequence: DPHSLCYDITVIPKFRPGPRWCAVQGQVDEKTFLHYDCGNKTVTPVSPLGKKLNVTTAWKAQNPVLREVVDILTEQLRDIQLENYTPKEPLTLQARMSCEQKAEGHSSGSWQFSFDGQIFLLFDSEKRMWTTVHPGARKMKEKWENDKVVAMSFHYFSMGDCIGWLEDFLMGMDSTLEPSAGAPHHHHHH
Source text: as §1

[4] = target: T4, A1-A2 domain of human ULBP3 with C-terminal 6x-His tag (monomer) (human, UniProt Q9BZM4 30-212); test: Octet BLI, response against concentration (legend: monomeric ligands; axis on the sheet: nM Fc-NKG2D.wt)
T4 construct: range 30-212; also called MIC-His ligand
T4 sequence: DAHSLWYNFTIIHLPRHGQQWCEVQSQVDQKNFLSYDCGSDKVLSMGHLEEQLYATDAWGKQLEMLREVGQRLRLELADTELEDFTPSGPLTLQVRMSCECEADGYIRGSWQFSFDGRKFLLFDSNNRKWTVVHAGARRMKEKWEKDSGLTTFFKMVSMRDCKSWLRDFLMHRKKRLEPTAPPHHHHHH

[5] = target: T5, A1-A2 domain of human MICB with C-terminal 6x-His tag (monomer) (human, UniProt Q29980 24-205); test: as above
T5 construct: range 24-205; also called MIC-His ligand
T5 sequence: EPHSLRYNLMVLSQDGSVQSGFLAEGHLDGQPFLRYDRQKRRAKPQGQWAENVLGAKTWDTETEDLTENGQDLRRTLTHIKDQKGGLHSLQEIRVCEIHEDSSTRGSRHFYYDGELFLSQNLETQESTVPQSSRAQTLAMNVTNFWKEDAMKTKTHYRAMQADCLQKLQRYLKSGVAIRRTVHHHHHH

[6] = target: T6, MICB-Fc (R&D Systems) (human, UniProt Q29980 23-298, limits assumed); test: ELISA; ligand-Fc coated, biotinylated Fc-wtNKG2D, streptavidin-HRP (legend: the Fc-NKG2D is titrated; axis on the sheet: nM ligand-Fc)
T6 construct: Bought; also called Ligand-Fc fusion; not shown: Fc of the bought fusion; not described
T6 sequence (looked up): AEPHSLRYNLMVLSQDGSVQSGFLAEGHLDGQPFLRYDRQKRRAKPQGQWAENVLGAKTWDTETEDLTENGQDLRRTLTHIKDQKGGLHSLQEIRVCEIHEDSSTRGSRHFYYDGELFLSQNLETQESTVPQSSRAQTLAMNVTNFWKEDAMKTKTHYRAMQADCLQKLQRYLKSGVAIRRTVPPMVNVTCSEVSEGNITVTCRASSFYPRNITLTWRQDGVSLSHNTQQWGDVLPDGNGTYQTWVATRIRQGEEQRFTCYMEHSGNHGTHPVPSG

[7] = target: T7, MICA-Fc (R&D Systems) (human, UniProt Q29983 24-308, limits assumed); test: as above
T7 construct: Bought; also called Ligand-Fc fusion; not shown: Fc of the bought fusion; not described
T7 sequence (looked up): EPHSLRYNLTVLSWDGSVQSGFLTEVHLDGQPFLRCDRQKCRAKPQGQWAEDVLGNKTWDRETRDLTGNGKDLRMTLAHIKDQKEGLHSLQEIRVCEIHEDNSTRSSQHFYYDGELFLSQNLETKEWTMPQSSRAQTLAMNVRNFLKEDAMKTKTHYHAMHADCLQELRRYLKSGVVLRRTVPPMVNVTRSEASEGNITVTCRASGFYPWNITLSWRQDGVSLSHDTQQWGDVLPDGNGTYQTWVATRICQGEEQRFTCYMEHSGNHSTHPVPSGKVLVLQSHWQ

[8] = target: T8, ULBP3-Fc (R&D Systems) (human, UniProt Q9BZM4 30-217); test: as above
T8 construct: Bought; also called Ligand-Fc fusion; not shown: Fc of the bought fusion; not described
T8 sequence (looked up): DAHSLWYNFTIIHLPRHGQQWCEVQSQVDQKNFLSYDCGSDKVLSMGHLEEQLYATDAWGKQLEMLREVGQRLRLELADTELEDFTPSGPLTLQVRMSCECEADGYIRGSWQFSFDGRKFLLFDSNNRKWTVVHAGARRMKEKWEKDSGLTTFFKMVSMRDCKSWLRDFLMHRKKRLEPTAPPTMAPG

[9] = target: T9, ULBP1-Fc (R&D Systems) (human, UniProt Q9BZM6 26-216); test: as above
T9 construct: Bought; also called Ligand-Fc fusion; not shown: Fc of the bought fusion; not described
T9 sequence (looked up): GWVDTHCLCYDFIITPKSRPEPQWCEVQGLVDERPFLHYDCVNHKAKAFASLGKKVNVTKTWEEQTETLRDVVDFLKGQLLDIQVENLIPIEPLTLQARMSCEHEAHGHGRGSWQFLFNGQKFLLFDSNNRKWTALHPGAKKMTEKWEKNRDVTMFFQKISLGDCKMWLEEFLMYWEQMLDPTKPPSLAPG

[10] = target: T10, A1-A2 domain of human MICA*001 with C-terminal 6x-His tag (monomer) (human, UniProt Q29983 24-205); test: Octet BLI; Fc-wtNKG2D captured on anti-human IgG Fc (AHC) tips, dilution series of His-tagged monomeric ligand
T10 construct: range 24-205; also called MIC-His ligand
T10 sequence: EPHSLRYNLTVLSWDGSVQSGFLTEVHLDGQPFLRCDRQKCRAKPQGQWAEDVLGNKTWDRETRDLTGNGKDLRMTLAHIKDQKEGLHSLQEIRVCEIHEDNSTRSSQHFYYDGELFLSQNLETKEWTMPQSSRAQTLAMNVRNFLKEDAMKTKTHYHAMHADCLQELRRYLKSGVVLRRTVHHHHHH
Source text: Note that all axes are to the same scale (Binding-0 nm, 0.4 nm. 0.8 nm, 1.2 nm (y-axis); Time-0 s, 50 s, 100 s, 150 s, 200 s, 250 s, 300 s, 350 s (x-axis). Data is representative of a single experiment.

[11] = target: Fc-iNKG2D.YA (NKG2D ectodomain Y152A fused to the C-terminus of human IgG1 Fc) (human) (UniProt P26718); test: ELISA; wells coated with Fc-iNKG2D.YA, R3Mab heavy-chain MicAbody titrated
[12] = target: T11, Fc-iNKG2D.YA (NKG2D ectodomain Y152A fused to the C-terminus of human IgG1 Fc) (human, UniProt P26718 78-216); test: ELISA; wells coated with Fc-iNKG2D.YA, Rituximab.LC-U2S3 titrated, HRP anti-human kappa
T11 construct: range 78-216; it is not tied by words to this Fc fusion; not shown: human IgG1 Fc
T11 sequence: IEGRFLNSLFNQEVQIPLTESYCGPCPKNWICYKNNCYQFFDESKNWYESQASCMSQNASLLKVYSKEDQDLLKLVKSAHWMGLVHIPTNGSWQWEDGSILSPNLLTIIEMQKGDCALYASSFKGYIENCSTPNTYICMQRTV

[13] = target: T11, Fc-iNKG2D.YA (NKG2D ectodomain Y152A …); test: Octet BLI; Fc-iNKG2D.YA captured on AHC tips, two-fold dilution series of MicAbody from 50 nM
Source text: The y-axes corresponding to binding responses were set to the same scale for all sensograms.

[14] = target: Fc-wtNKG2D (wild-type NKG2D ectodomain fused to the C-terminus of human IgG1 Fc) (human) (UniProt P26718); test: ELISA; wells coated with Fc-wtNKG2D, R3Mab heavy-chain MicAbody titrated

## Trastuzumab.LC-Rae1b (bispecific antibody)
[1]
  EC50 (read off the curve): 1 nM

B1: Fc-wtNKG2D (wild-type NKG2D ectodomain fused to the C-terminus of human IgG1 Fc) (Fc fusion)
chain: IEGRFLNSLFNQEVQIPLTESYCGPCPKNWICYKNNCYQFFDESKNWYESQASCMSQNASLLKVYSKEDQDLLKLVKSYHWMGLVHIPTNGSWQWEDGSILSPNLLTIIEMQKGDCALYASSFKGYIENCSTPNTYICMQRTV
notes: range 78-216; Dimeric secreted protein from Expi293 cells; also called Fc-NKG2D; not shown: human IgG1 Fc
[2]
  Kd: 8 nM
[3]
  Kd: 350 nM
[4]
  binding result: binds
[5]
  binding result: binds
[6]
  binding result: binds
[7]
  binding result: binds
[8]
  binding result: binds
[9]
  binding result: binds
[10]
  binding result: binds

B2: R3Mab (anti-FGFR3) heavy-chain C-terminal fusion of U2S3 (MicAbody) (bispecific antibody, part only; not given: R3Mab variable regions and Fc, IgG1, not shown: a dimerising Fc or GST)
heavy, part: GGGSEPHSLSYDITVIPKFRPGPRWCAVQGQVDEKTFLHYDCGQKTVTPVSPLGKKLQVTTAWKAQNPVLREVVDILTEQLWDIQLENYTPKEPLTLQARMSCEQKAEGHSSGSWQFSFDGQIFLLFDSEKRMWTTVHPGARKMKEKWENDKVVATKLYLWSMGDCIGWLEDFLMGMDSTLEPS
[11]
  EC50 (read off the curve): 0.02 nM

B3: Rituximab.LC-U2S3 MicAbody (U2S3 A1-A2 domain fused to the C-terminus of the rituximab kappa light chain) (bispecific antibody)
heavy: QVQLQQPGAELVKPGASVKMSCKASGYTFTSYNMHWVKQTPGRGLEWIGAIYPGNGDTSYNQKFKGKATLTADKSSSTAYMQLSSLTSEDSAVYYCARSTYYGGDWYFNVWGAGTTVTVSAA
light (part 1 of 2): QIVLSQSPAILSASPGEKVTMTCRASSSVSYIHWFQQKPGSSPKPWIYATSNLASGVPVRFSGSGSGTSYSLTISRVEAEDAATYYCQQWTSNPPTFGGGTKLEIK
light (part 2 of 2): APTSSSGGGGSEPHSLSYDITVIPKFRPGPRWCAVQGQVDEKTFLHYDCGQKTVTPVSPLGKKLQVTTAWKAQNPVLREVVDILTEQLWDIQLENYTPKEPLTLQARMSCEQKAEGHSSGSWQFSFDGQIFLLFDSEKRMWTTVHPGARKMKEKWENDKVVATKLYLWSMGDCIGWLEDFLMGMDSTLEPS
notes: also called Rit-S3; Ritux-S3; not shown: human IgG1 heavy-chain constant region, ADCC-deficient; human kappa light-chain constant region
[12]
  EC50 (read off the curve): ~0.03 nM
[13]
  Kd: 0.01 nM

B4: R3Mab (anti-FGFR3) heavy-chain C-terminal fusion of wild-type ULBP2 (MicAbody) (bispecific antibody, part only; not given: R3Mab variable regions and Fc, IgG1, not shown: a dimerising Fc or GST)
heavy, part: GGGSDPHSLCYDITVIPKFRPGPRWCAVQGQVDEKTFLHYDCGNKTVTPVSPLGKKLNVTTAWKAQNPVLREVVDILTEQLRDIQLENYTPKEPLTLQARMSCEQKAEGHSSGSWQFSFDGQIFLLFDSEKRMWTTVHPGARKMKEKWENDKVVAMSFHYFSMGDCIGWLEDFLMGMDSTLEPSAG
[14]
  EC50 (read off the curve): 0.4 nM

B5: R3Mab (anti-FGFR3) heavy-chain C-terminal fusion of ULBP2 R81W (MicAbody) (bispecific antibody, part only; not given: R3Mab variable regions and Fc, IgG1, not shown: a dimerising Fc or GST)
heavy, part: GGGSDPHSLCYDITVIPKFRPGPRWCAVQGQVDEKTFLHYDCGNKTVTPVSPLGKKLNVTTAWKAQNPVLREVVDILTEQLWDIQLENYTPKEPLTLQARMSCEQKAEGHSSGSWQFSFDGQIFLLFDSEKRMWTTVHPGARKMKEKWENDKVVAMSFHYFSMGDCIGWLEDFLMGMDSTLEPSAG
[14]
  EC50 (read off the curve): 0.02 nM
